Reference: the DeepSol protein solubility set

Test: soluble on expression in E. coli; label from the status in PepcDB or PDB records

Row | Sequence | soluble on expression in E. coli
1 | MARKTKEDTQATREGILDAAEACFHEHGVARTTLEMIGARAGYTRGAVYWHFKNKSEVLAAIVERVHLPFMQELERTSTDQRDTPVHDLRAVMIHSFIELSEDERLRKTMEIMLRSDASANTRVLTEMQQAGFRDALDRMERALRRARDLGQLREGADPKIAARMLHATVLGVLHGAMVEPELMDLKRDGMLALDMTLAAYVKDGVFVPGTVPEPLPEA | soluble
2 | MARMYRALTRDIEVTVDPYYLEEQSDPDDDRYVWGYKVVIANNSDVPVKLVNRYWHITDQNGQVDEVYGPGVVGEQPQLKPGDSYEYSSGCPLDTPSGLMFGHYEMETENGEVFNVTIPAFSLDSPGLMRVLNAAALEHHHHHH | soluble
3 | MARPLEQAVAAIVCTFQEYAGRCGDKYKLCQAELKELLQKELATWTPTEFRECDYNKFMSVLDTNKDCEVDFVEYVRSLACLCLYCHEYFKDCPSEPPCSQ | soluble
4 | MARYYVLDLSEDFRRELRETLAEMVNPVEVHVFLSKSGCETCEDTLRLMKLFEEESPTRNGGKLLKLNVYYRESDSDKFSEFKVERVPTVAFLGGEVRWTGIPAGEEIRALVEVIMRLSEDESGLEDATKEALKSLKGRVHIETIITPSCPYCPYAVLLAHMFAYEAWKQGNPVILSEAVEAYENPDIADKYGVMSVPSIAINGYLVFVGVPYEEDFLDYVKSAAEGRLTVKGPIRAGEAEEL | soluble
5 | MASEVPQVVSLDPTSIPIEYNTPIHDIKVQVYDIKGGCNVEEGLTIFLVNNPGKENGPVKISSKVNDKQVSEFLKDENMEKFNVKLGTSKHFYMFNDNKNSVAVGYVGCGSVADLSEADMKRVVLSLVTMLHDNKLSKLTVVFEINVDKNLFRFFLETLFYEYMTDERFKSTDKNVNMEYIKHLGVYINNADTYKEEVEKARVYYFGTYYASQLIAAPSNYCNPVSLSNAAVELAQKLNLEYKILGVKELEELKMGAYLSVGKGSMYPNKFIHLTYKSKGDVKKKIALVGKGITFDSGGYNLKAAPGSMIDLMKFDMSGCAAVLGCAYCVGTLKPENVEIHFLSAVCENMVSKNSYRPGDIITASNGKTIEVGNTDAEGRLTLADALVYAEKLGVDYIVDIATLTGAMLYSLGTSYAGVFGNNEELINKILQSSKTSNEPVWWLPIINEYRATLNSKYADINQISSSVKASSIVASLFLKEFVQNTAWAHIDIAGVSWNFKARKPKGFGVRLLTEFVLNDALHHHHHH | soluble
6 | MASGDLVHYVITVMLHEDTLTEINELNNYLTRDGFLLTMTDDEGNIHELGTNTFGLISTQSEEEIRELVSGLTQSATGKDPEITITTWEEWNSNRK | not soluble
7 | MASHIVGYPRMGPKRELKFALESFWDGKSTAEDLQKVSADLRSSIWKQMSAAGTKFIPSNTFAHYDQVLDTTAMLGAVPPRYGYTGGEIGLDVYFSMARGNASVPAMEMTKWFDTNYHYIVPELGPEVNFSYASHKAVNEYKEAKALGVDTVPVLVGPVSYLLLSKAAKGVDKSFELLSLLPKILPIYKEVITELKAAGATWIQLDEPVLVMDLEGQKLQAFTGAYAELESTLSGLNVLVETYFADIPAEAYKTLTSLKGVTAFGFDLVRGTKTLDLVKAGFPEGKYLFAGVVDGRNIWANDFAASLSTLQALEGIVGKDKLVVSTSCSLLHTAVDLINETKLDDEIKSWLAFAAQKVVEVNALAKALAGQKDEALFSANAAALASRRSSPRVTNEGVQKAAAALKGSDHRRATNVSARLDAQQKKLNLPILPTTTIGSFPQTVELRRVRREYKAKKVSEEDYVKAIKEEIKKVVDLQEELDIDVLVHGEPERNDMVEYFGEQLSGFAFTANGWVQSYGSRCVKPPVIYGDVSRPKAMTVFWSAMAQSMTSRPMKGMLTGPVTILNWSFVRNDQPRHETCYQIALAIKDEVEDLEKGGIGVIQIDEAALREGLPLRKSEHAFYLDWAVHSFRITNCGVQDSTQIHTHMCYSHFNDIIHSIIDMDADVITIENSRSDEKLLSVFREGVKYGAGIGPGVYDIHSPRIPSSEEIADRVNKMLAVLEQNILWVNPDCGLKTRKYTEVKPALKNMVDAAKLIRSQLASAK | soluble
8 | MASLWRAVIGGQNNNSEDYGGVEFWSNPERTGWLTKQGEYIKTWRRRWFVLKQGKLFWFKDSDVTRVSRPRGVVPVESCLTAKGAEDVLNKQNAFELSTRNETMYFIADSEKEKEDWINSIGRSIVQNSRSVTDSEIVDYDNKH | soluble
9 | MASPVIYQAEDAIIYNAILETVNAGYTGSCYVNYHNEVGGYIEWNVNAPSSGSYALIFRYANGTTANRPMRITVNGNIVKPSMDFVSTGAWTTWNEAGIVANLNQGNNVIRATAIASDGGPNVDYLKVFSANAFQPVSLEHHHHHH | soluble
10 | MASRGKTETSKLKQNLEEQLDRLMQQLQDLEECREELDTDEYEETKKETLEQLSEFNDSLKKIMSGNMTLVDELSGMQLAIQAAISQAFKTPEVIRLFAKKQPGQLRTRLAEMDRDLMVGKLERDLYTQQKVEILTALRKLGEKLTADDEAFLSANAGAILSQFEKVSTDLGSGDKILALASFEVEKTKK | not soluble
11 | MASSGDYDEIIKSISDAPPTHYMVKIESFSLLTKHAIERYETESFEAGGYKWKLVLYPNGNKSKNTKDHVSVYLSLADSSSLSPGWEVYAVFRLYLLDQNKDNYLILQGNERRFHSVKREWGFDKFIPTGTFSDASNGYLMEDTCMFGADVFVSKERRSGRGECLSMIKDATSSKHVWKIENFSKLDKESYDSNAFFAGDRKWKIEFYPTGTKQGTGTHLSIYLTLVDPETISDGTKIFVEFTIRIFDQLQGRHIAGKVTKWFSRSSSEHGWVKYVSMVYFTQPNSGLLLKDVCLVEADVCVHGITSAI | soluble
12 | MASSVLEMIKEEVTCPICLELLKEPVSADCNHSFCRACITLNYESNRNTDGKGNCPVCRVPYPFGNLKPNLHVANIVERLKGFKSIPEEEQKVNICAQHGEKLRLFCRKDMMVICWLCERSQEHRGHQTALIEEVDQEYKEKLQGALRKLMKKAKICDEWQDDLQLQRVDWENQIQINVENVQRQFKGLRDLLDSKENEELQKLKKEKKEVMEKLEESENELEDQTELVRDLISDVEHHLQLSTLEMLQGANCVLRRSQSLSLQQPQSVPQKRKRTFQAPDLKGMLQVYQGLMDIQQYWVHMTLHARNNAVIAINKEKRQIQYRSYNTVPVSEIYHLGVLGYPALSSGKHYWEVDISRSDAWLLGLNDGKCAQPQLHSKEEMGIKKNLHSQIKQNVLFQPKCGYWVIGMKNPSVYNAFDECSITHNSSILVISLPDCPSRVGVFLDRKAGTLSFYDVSNCGALIYRFYDPAFPVEVYPYFNPMKCSEPMTICGPPS | soluble
13 | MASTNTNLQKAIDLASKAAQEDKAGNYEEALQLYQHAVQYFLHVVKYEAQGDKAKQSIRAKCTEYLDRAEKLKEYLKKKEKKPQKPVKEEQSGPVDEKGNDSDGEAESDDPEKKKLQNQLQGAIVIERPNVKWSDVAGLEGAKEALKEAVILPIKFPHLFTGKRTPWRGILLFGPPGTGKSYLAKAVATEANNSTFFSISSSDLVSKWLGESEKLVKNLFQLARENKPSIIFIDEIDSLCGSRSENESEAARRIKTEFLVQMQGVGVDNDGILVLGATNIPWVLDSAIRRRFEKRIYIPLPEAHARAAMFRLHLGSTQNSLTEADFQELGRKTDGYSGADISIIVRDALMQPVRKVQSATHFKKVRGPSRADPNCIVNDLLTPCSPGDPGAIEMTWMDVPGDKLLEPVVSMWDMLRSLSSTKPTVNEQDLLKLKKFTEDFGQEG | soluble
14 | MATASHNIDDILQLKDDTGVITVTADNYPLLSRGVPGYFNILYITMRGTNSNGMSCQLCHDFEKTYHAVADVIRSQAPQSLNLFFTVDVNEVPQLVKDLKLQNVPHLVVYPPAESNKQSQFEWKTSPFYQYSLVPENAENTLQFGDFLAKILNISITVPQAFNVQEEFHHHHHHHHHH | soluble
15 | MATEDAVREALATVNDPEINRPITELGMVKSVEIGADGAVAVAVYLTVSGCPMRDTITQRVSDAVSRVEGVTRVDVELDVMSDEQRKELATALRGGQTEREVPFAKPGSLTRVYAVASGKGGVGKSSVTVNLAASMAADGLKVGVVDADIYGHSVPRMLGADGRPTQVENMIMPPSAHGVKVISIGMFTPGNAPVVWRGPMLHRALQQFLADVYWGDLDVLLLDLPPGTGDIAISVAQLVPNAEILVVTTPQQAAAEVAERAGAIAVQTHQKIVGVVENMSGLPCPHCGEMVDVFGTGGGQTVADGLTRTTGASVPVLGAIPIDVRLREGGDEGKPVVLSDPDSPAGAALRSIAGKLGGRQRGLSGLSLGITPKNKFLEHHHHHH | soluble
